Experimental data: paper PMC5737520 (Nucleic Acids Research, 2017)

T1: bS1c, chloroplast ribosomal protein S1 (spinach (Spinacia oleracea) (endogenous …, UniProt P29344 42-411))
T1 sequence (looked up): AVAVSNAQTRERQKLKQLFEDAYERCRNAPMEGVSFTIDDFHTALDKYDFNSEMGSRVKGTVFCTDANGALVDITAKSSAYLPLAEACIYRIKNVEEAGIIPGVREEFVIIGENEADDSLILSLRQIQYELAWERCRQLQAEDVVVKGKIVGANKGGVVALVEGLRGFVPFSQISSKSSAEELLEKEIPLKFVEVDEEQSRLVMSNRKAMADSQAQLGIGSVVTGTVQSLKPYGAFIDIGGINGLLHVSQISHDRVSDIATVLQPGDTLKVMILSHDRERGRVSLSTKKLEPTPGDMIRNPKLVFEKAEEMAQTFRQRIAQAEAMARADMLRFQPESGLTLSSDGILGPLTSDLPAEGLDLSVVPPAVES

T2: uS13c, chloroplast ribosomal protein S13 (spinach (Spinacia oleracea) (endogenous …, UniProt P82163 48-172))
T2 sequence (looked up): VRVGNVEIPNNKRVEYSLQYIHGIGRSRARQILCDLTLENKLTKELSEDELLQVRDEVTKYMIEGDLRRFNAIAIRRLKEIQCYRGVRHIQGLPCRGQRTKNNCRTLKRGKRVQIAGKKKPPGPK


How the values were obtained:
[1] = target: T1, bS1c, chloroplast ribosomal protein S1; assay: cryo-EM structure
[2] = target: T2, uS13c, chloroplast ribosomal protein S13; assay: cryo-EM structure

| binding result [1] | binding result [2] | Binder |
| --- | --- | --- |
| binds | – | uS2c, chloroplast ribosomal protein S2 (natural protein, UniProt P08242 1-236, looked up) MTRRYWNINLEEMMEAGVHFGHGTRKWNPRMSPYISAKCKGIHIINLTRTARFLSEACDLVFDASSRGKQFLIVGTKNKAADSVARAAIRARCHYVNKKWLGGMLTNWSTTETRLHKFRDLRMEQTAGRLARLPKRDAAVVKRQLSHLQTYLGGIKYMTGLPDIVIIVDQQEEYTALRECITLGIPTICLIDTNCNPDLADISIPANDDAIASIRLILTKLVFAICEGRSSYIRNP |
| – | binds | GRGDRKTAKGKRFNHSFGNARPKNKNKGRGPPKAPIFPKGDPSQKED (natural protein, UniProt P47910 55-101, looked up) [bTHXc (PSRP4), plastid-specific ribosomal protein of the chloroplast ribosome small subunit] |
